Data set [1] has as its system mCherry-HuR (human (HeLa HuR KO cells; HuR species implied)?). The experiment in a line: RP-CONA (on-bead RNA pull-down, confocal imaging). The following applies: Anisotropy: phosphate buffer pH 7.5, 25 mM MgCl (so in the source), 250 mM NaCl, 0.1% Tween 20, 5 mM DTT, temperature not stated, RP-CONA: cell extract on ….
For data set [2], the system named is HuR (ELAV-like protein 1), recombinant (human). Description: fluorescence anisotropy. The following applies: Anisotropy: phosphate buffer pH 7.5, 25 mM MgCl (so in the source), 250 mM NaCl, 0.1% Tween 20, 5 mM DTT, temperature not stated; RP-CONA: cell extract on …. For orientation: In fluorescence polarisation assays a small probe gives low polarisation when free and higher when bound to something large.

Data set [3] concerns the target HuR (Recombinant Human Elav-like protein 1, ELAVL1/HuR) (Homo sapiens, UniProt Q15717). The experiment in a line: fluorescence anisotropy, displacement of pri-miR-7-1 CTL 6-FAM RNA from purified recombinant HuR; RP-CONA in HeLa extracts gave IC50 […]. It counts as binding.

HuR (Recombinant Human Elav-like protein 1, ELAVL1/HuR), sequence (Q15717 2-326): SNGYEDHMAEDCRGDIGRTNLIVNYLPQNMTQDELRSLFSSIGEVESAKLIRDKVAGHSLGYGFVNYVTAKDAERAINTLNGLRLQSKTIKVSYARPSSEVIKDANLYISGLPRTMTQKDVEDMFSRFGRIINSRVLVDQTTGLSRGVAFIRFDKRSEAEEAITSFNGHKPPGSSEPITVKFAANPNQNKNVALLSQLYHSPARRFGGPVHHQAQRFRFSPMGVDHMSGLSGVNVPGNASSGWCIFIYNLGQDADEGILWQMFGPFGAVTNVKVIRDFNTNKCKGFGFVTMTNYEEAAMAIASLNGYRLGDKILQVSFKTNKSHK

As for “pri-miR-7 CTL (pri-miR-7-6-FAM), RP-CONA”, the binding signal in data set [1] (20 uM Eltrombopag) came to 80 % inhibition. The half-maximal inhibitory concentration (IC50) (usually the concentration that gives 50% inhibition) in data set [1] (IC50 is of Eltrombopag (0-50 uM) inhibiting the complex, not HuR affinity) amounted to 5.9 µM.
As for pri-miR-7-1-6-FAM CTL, anisotropy, the concentration for half-maximal inhibition (IC50) in data set [2] came to 19 µM.
Regarding `CC1=NN(c2ccc(C)c(C)c2)C(=O)/C1=N\Nc1cccc(-c2cccc(C(=O)O)c2)c1O` [E20, Eltrombopag], the IC50 in data set [3] came to 19 µM.

The values are drawn from PMC11756078, “Effects of genetic ablation and pharmacological inhibition of HuR on gene expression, iron metabolism, and hormone levels” (BMC Biology, 2025).
